Substitutions are numbered along the chain they refer to.
T1: 人Nectin-4 (human, UniProt Q96NY8 32-349)
T1 construct: construct not described; also called human Nectin-4; PVRL4
T1 sequence (looked up): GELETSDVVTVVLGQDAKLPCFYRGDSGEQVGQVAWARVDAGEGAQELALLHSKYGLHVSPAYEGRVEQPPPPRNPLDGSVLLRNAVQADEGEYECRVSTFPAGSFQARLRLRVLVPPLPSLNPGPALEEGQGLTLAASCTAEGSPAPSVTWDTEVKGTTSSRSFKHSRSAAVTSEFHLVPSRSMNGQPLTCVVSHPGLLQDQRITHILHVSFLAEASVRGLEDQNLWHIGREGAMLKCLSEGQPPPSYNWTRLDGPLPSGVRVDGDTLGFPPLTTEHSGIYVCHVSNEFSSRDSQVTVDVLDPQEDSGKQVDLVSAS

B1: CMB7-9 (Fc fusion)
chain: QVQLVESGGGLVQPGGSLRLSCAASGSIFSINAMGWYRQAPGKQRELVASITNGGSTKYDDSVKGRFTISRDNAKNTVYLQMNSLKPEDTAVYYCAAASLVVGGTWEYDTWGQGTLVTVSS
notes: Tested as VHH fused to human Fc; also called VHH-Fc; not shown: human Fc fused to the VHH
B2: CMB7-22 (Fc fusion)
chain: QVQLVESGGGLVQAGGSLRLSCAASGSIFSINAMGWFRQAPGKQRELVAAITSGGSTNYAVSVKGRFTISSDKAKNTVYLQMNSLKPEDTAVYYCAAARGEPFEYEYWGQGTLVTVSS
notes: as for B1
B3: CMB7-8 (Fc fusion)
chain: B2 chain with S27N, I31V, T57I, N58R, A60V, V61D, S71R, K73N, F103Y, E106D
notes: as for B1
B4: CMB7-7 (Fc fusion)
chain: B2 chain with V48A, N58K, V61D, S71R, K73N, S84R, A91G, R99T, E106N, L113Q
notes: as for B1
B5: CMB7-6 (Fc fusion)
chain: QVQLVESGGGLVQPGGSLRLSCAASGSIFSINVMGWYRQAPGKQRELVATITSGGSVNYADSVKGRFTISRDNANNTVYLQMNTLKPEDTAVYYCTADQLGPLGLLSPTIYWGQGTLVTVSS
notes: also called VHH 36; VHH-Fc; not shown: human Fc fused to the VHH
B6: CMB7-23 (Fc fusion)
chain: B5 chain with I28D, S30T, I51V, V57L, N75K, T84S, L100F, L105H, T109I, L117Q
notes: as for B1
B7: CMB7-20 (Fc fusion)
chain: B5 chain with I31M, V57T, T84S, A97G, L105T, L106F, T109I, I110V, L117Q
notes: as for B1
B8: CMB7-18 (Fc fusion)
chain: QVQLVESGGGLVQAGGSLRLSCAASGSIFSINAMGWHRQGPGDQRELVAAITSGGSTKYVDSVKGRFTISRDNAKNTVYLQMNSLKPEDTGVYYCAAMGGSYEYDYWGQGTQVTVSS
notes: as for B1
B9: CMB7-10 (Fc fusion)
chain: QVQLVESGGGLVQAGESLRLSCAASGSIFSINAMAWYRQAPGKQRELVAAITSGGSTKYADSVKGRFTISRDNAKNTVYLQMNSLKPEDTAVYYCAAMDRTTLEYDYWGQGTLVTVSS
notes: as for B1
B10: CMB7-19 (Fc fusion)
chain: B9 chain with E16G, R19G, G26E, I31Y, A35G, Y37F, T57I, T90R, A91G
notes: as for B1
B11: CMB7-12 (Fc fusion)
chain: QVQLVESGGGLVQPGGSLRLACAASGSIFSINVMGWYRQAPGKQREYVASVSRGGSVKYVDSVKGRFTVSRDNAKNTMYLEMNSLKPEDTAIYFCGAETKMGRGFDSWGQGTQVTVSS
notes: as for B1
B12: CMB7-11 (Fc fusion)
chain: QVQLVESGGGLVQAGGSLRLSCAASGSIFSISAMGWFRQAPGNQREMVAAITKGGSVNYADSVKGRFTITRDNAKNTVYLQMNSLKPEDTAVYYCAAAVGAPFEYDYWGQGTQVTVSS
notes: as for B1

target: T1, 人Nectin-4; experiment: BLI, VHH-Fc on anti-hIgG Fc probe, human Nectin-4 as analyte; parameters: 响应: unit not given here

Binder | Kd | 响应
B1 | 0.53 nM | 0.891
B2 |  | 0.841
B3 |  | 0.915
B4 |  | 0.972
B5 |  | 0.835
B6 |  | 0.877
B7 |  | 0.783
B8 | 0.81 nM | 0.729
B9 | 0.958 nM | 0.891
B10 |  | 0.867
B11 |  | 0.97
B12 |  | 0.94

Source: CN114671953A (BORGI BIOMEDICAL SCIENCE AND TECH HANGZHOU LIMITED COMPANY, dated 2022)
